Article PMC8024706 (iScience, 2021)

Target: the molecule itself
Experiment: high-speed atomic force microscopy

B1: PDI I289A (enzyme)
chain: not shown
For B1, the “stoichiometry N” value was 2.
